Broadly, the stoichiometry N is the number of molecules, sites or subunits per partner or assembly.

The target of data set [1] is truncated kinesin-1 rigor mutant (KIF5B(1–490)) with SpyTag003 at the C terminus (UniProt P33176). Description: mass photometry.
The target in data set [2] is BicD2(25–400) with SpyCatcher003 at the C terminus (mouse) (UniProt Q921C5). In words: mass photometry.
Data set [3] has as its target BicD2–superfolder green fluorescent protein (sfGFP), amino acids 25–400 (UniProt Q921C5). Description: pull-down + other: mass photometry.
Data set [4] deals with BicD2–rigor kinesin conjugate (BicD2(25–400)–SpyCatcher003 covalently linked to KIF5B(1–490) rigor mutant–SpyTag003) (mouse | not stated) (UniProt Q921C5). Description: three-colour single-molecule TIRF co-localization.
Data set [5] deals with Biotinylated BicD2 (amino acids 25–400) (mouse) (UniProt Q921C5). In words: three-colour single-molecule TIRF co-localization.
The data set “mass photometry” deals with the molecule itself. Description: mass photometry.

Values joined by “and” are separate entries in the source; they are usually repeats but may differ in a detail not shown here. Equal entries are not always repeated.

BicD2–superfolder green fluorescent protein (sfGFP), amino acids 25–400, sequence (Q921C5 25-400): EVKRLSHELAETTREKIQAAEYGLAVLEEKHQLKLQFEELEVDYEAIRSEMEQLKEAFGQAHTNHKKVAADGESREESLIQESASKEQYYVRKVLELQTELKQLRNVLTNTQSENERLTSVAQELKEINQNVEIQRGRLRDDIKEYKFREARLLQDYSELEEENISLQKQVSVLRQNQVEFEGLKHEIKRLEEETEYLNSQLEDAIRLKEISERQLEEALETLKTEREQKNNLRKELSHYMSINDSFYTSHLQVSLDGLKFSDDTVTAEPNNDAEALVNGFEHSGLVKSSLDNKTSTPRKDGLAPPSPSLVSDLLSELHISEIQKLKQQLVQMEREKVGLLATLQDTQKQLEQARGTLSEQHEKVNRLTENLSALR
BicD2–rigor kinesin conjugate (BicD2(25–400)–SpyCatcher003 covalently linked to KIF5B(1–490) rigor mutant–SpyTag003) (mouse | not stated), sequence (Q921C5 25-400, change not shown): as the sequence (Q921C5 25-400) above
Biotinylated BicD2 (amino acids 25–400) (mouse), sequence (Q921C5 25-400): as above

On to “BicD2(25–400) with SpyCatcher003 at the C terminus (from UniProt Q921C5 25-400) (domain or fragment)”, for which the stoichiometry N (BicD2:rigor kinesin (2:2)) in data set [1] is 1. The stoichiometry N in data set [2] amounted to 2.
With “cytoplasmic dynein from rat-brain lysate (complex)”, the stoichiometry N (dynein per DDB complex) in data set [3] was 1 and 2.
For the molecule “recombinant full-length human cytoplasmic dynein-1 complex co-expressed with its five accessory chains (from UniProt Q14204;Q13409;O43237;P63172;P63167;Q9NP97)”, the results for the frequency of three-colour dynein co-localization in data set [4] and in data set [5] were 0.028 and 0.018, respectively.

B1: truncated kinesin-1 rigor mutant (KIF5B(1–490)) with SpyTag003 at the C terminus (domain or fragment)
chain: MADLAESNIKVMCRFRPLNESEVNRGDKYIAKFQGEDTVVIACKPYAFDRVFQSSTSQEQVYNDAAKKIVKDVLEGYNGTIFAYGQTSSGKNHTMEGKLHDPEGMGIIPRIVQDIFNYIYSMDENLEFHIKVSYFEIYLDKIRDLLDVSKTNLSVHEDKNRVPYVKGATERFVSSPDEVMDTIDEGKSNRHVAVTNMNEHSSRSHSIFLINVKQENTQTEQKLSGKLYLVDLAGSEKVSKTGAEGAVLDEAKNINKSLSALGNVISALAEGSTYVPYRDSKMTRILQDSLGGNARTTIVICCSPSSYNESETKSTLLFGQRAKTIKNTVSVNVELTAEQWKKKYEKEKEKNKILRNTIQWLENELNRWRNGETVPIDEQFDKEKANLEAFTVDKDITLTNDKPATAIGVIGNFTDAERRKAEEEIAKLYKQLDDKDEEINQQSQLVEKLKTQMLDQEELLASTRRDQDNMQAELNRLQAENDASKEEVKE
modifications: cyanine 5 label (Fig. 5d) or CF488 label (Fig. 5h)
On to B1, for which the “stoichiometry N” value in “mass photometry” was 2.

The record behind these values is paper PMC12992115 (Nature Cell Biology, 2026).
